Reference: publication PMC9070667, “Molecular insights into RNA recognition and gene regulation by the TRIM-NHL protein Mei-P26”

Experiments:
[1] = biological target: T1, Brat NHL (Drosophila melanogaster, UniProt Q8MQJ9 756-1037); assay: MST; MST: 20 mM Hepes/KOH pH 7.5, 100 mM NaCl, 5 mM MgCl2, 5 mM DTT, 0.0125% Tween 20, 25 C (Brat: 20 mM Tris 8.0, 150 mM NaCl, 1 mM MgCl2, 5 mM DTT, 0.0125% Tween 20). EMSA, 1:1 mix, 4 C: RNA in 10 mM Tris pH 7.4, 50 mM KCl, 1 mM EDTA, 1 mM DTT, 0.4 mg/ml yeast tRNA; protein in 20 mM Hepes pH 7.5, 5 mM DTT, 100 mM (wt) or 300 mM (mutants) NaCl, 5% glycerol; settings: protein: recombinant; tags: His6-ubiquitin fusion (pHUE); label: Cy5
T1 sequence: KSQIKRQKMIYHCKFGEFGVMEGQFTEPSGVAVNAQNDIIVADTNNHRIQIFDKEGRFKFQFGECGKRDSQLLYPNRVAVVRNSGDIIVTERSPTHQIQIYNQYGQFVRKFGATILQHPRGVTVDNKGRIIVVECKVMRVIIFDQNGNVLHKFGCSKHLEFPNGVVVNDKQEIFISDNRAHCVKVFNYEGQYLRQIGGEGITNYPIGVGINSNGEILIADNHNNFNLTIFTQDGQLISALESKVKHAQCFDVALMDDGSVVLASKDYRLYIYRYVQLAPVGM

[2] = biological target: T2, Mei-P26 NHL wt (Drosophila melanogaster (Oregon-R), UniProt M9PH32 908-1206); assay: EMSA; MST: 20 mM Hepes/KOH pH 7.5, 100 mM NaCl, 5 mM MgCl2, 5 mM DTT, 0.0125% Tween 20, 25 C (Brat: 20 mM Tris 8.0, 150 mM NaCl, 1 mM MgCl2, 5 mM DTT, 0.0125% Tween 20). EMSA, 1:1 mix, 4 C: RNA in 10 mM Tris pH 7.4, 50 mM KCl, 1 mM EDTA, 1 mM DTT, 0.4 mg/ml yeast tRNA; protein in 20 mM Hepes pH 7.5, 5 mM DTT, 100 mM (wt) or 300 mM (mutants) NaCl, 5% glycerol; settings: protein: recombinant, tags: GST removed by TEV
T2 sequence: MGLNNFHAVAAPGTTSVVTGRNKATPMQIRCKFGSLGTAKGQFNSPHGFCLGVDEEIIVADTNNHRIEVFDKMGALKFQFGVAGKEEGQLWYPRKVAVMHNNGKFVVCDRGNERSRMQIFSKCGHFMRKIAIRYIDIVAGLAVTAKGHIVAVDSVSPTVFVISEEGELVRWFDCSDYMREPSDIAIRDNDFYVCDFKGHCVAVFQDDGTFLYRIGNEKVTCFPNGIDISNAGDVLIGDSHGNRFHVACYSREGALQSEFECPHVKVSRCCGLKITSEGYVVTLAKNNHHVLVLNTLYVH

[3] = biological target: T3, Mei-P26 NHL RKR (Drosophila melanogaster (Oregon-R), UniProt M9PH32 908-1206, R1150A;K1172A;R1175A); assay: as above; settings: protein: recombinant; tags: GST removed by TEV; label: 32P
T3 sequence: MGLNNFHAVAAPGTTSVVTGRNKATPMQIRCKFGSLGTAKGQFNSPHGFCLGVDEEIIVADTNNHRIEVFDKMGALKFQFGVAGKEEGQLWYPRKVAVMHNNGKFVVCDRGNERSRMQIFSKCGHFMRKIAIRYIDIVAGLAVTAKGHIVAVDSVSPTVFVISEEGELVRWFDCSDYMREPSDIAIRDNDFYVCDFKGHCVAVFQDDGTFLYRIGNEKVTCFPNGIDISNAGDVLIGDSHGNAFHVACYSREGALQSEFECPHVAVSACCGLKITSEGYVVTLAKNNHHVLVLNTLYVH

[4] = biological target: T2, Mei-P26 NHL wt; assay: MST; MST: 20 mM Hepes/KOH pH 7.5, 100 mM NaCl, 5 mM MgCl2, 5 mM DTT, 0.0125% Tween 20, 25 C (Brat: 20 mM Tris 8.0, 150 mM NaCl, 1 mM MgCl2, 5 mM DTT, 0.0125% Tween 20). EMSA, 1:1 mix, 4 C: RNA in 10 mM Tris pH 7.4, 50 mM KCl, 1 mM EDTA, 1 mM DTT, 0.4 mg/ml yeast tRNA; protein in 20 mM Hepes pH 7.5, 5 mM DTT, 100 mM (wt) or 300 mM (mutants) NaCl, 5% glycerol; settings: protein: recombinant, tags: GST removed by TEV
[5] = biological target: T3, Mei-P26 NHL RKR; assay: as above; settings: protein: recombinant; tags: GST removed by TEV; label: Cy5
[6] = biological target: T4, Mei-P26 NHL R1175A (Drosophila melanogaster (Oregon-R), UniProt M9PH32 908-1206, R1175A); assay: MST; minor influence of the mutation; MST: 20 mM Hepes/KOH pH 7.5, 100 mM NaCl, 5 mM MgCl2, 5 mM DTT, 0.0125% Tween 20, 25 C (Brat: 20 mM Tris 8.0, 150 mM NaCl, 1 mM MgCl2, 5 mM DTT, 0.0125% Tween 20). EMSA, 1:1 mix, 4 C: RNA in 10 mM Tris pH 7.4, 50 mM KCl, 1 mM EDTA, 1 mM DTT, 0.4 mg/ml yeast tRNA; protein in 20 mM Hepes pH 7.5, 5 mM DTT, 100 mM (wt) or 300 mM (mutants) NaCl, 5% glycerol; settings: protein: recombinant; tags: GST removed by TEV; label: Cy5 (MST); 32P (EMSA)
T4 sequence: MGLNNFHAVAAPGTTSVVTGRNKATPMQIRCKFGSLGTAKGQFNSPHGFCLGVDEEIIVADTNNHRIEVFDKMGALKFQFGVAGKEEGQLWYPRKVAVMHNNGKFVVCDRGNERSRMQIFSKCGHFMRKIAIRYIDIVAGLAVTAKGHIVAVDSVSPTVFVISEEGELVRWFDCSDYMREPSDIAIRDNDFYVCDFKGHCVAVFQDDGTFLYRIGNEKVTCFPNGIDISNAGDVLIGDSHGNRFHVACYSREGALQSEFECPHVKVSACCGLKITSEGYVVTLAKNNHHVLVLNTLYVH

## UUGUUAA (ssRNA) [BRAT1]
[1]
  binding result: binds

## AUCCUUUUUAAAACUCC (ssRNA) [LanA]
[2]; label: 32P
  binding result: binds
[3]
  binding result: no binding

## CCCUUUUUUUAUACACAA (ssRNA) [lost]
[2]; label: 32P
  binding result: binds
[3]
  binding result: no binding

## AUUUACA (ssRNA) [SEQ2]
[4]; label: Cy5
  binding result: binds

## UUUUUUU (ssRNA) [U7 (SEQ1)]
[4]; label: Cy5
  Kd: 1800 ± 200 nM

## UUUUACA (ssRNA) [SEQ3]
[4]; label: Cy5
  Kd: 1700 nM
[5]
  binding result: no binding

## GGAGUCCAACUCC (structured_RNA) [dsRNA hairpin (Lin41 SEQ)]
[4]; label: Cy5 (MST), 32P (EMSA), hairpin
  binding result: no binding

## AGUAAUUUUUUCUAUUAAAGU (ssRNA) [Hrb27C]
[2]; label: 32P
  binding result: binds
[3]
  binding result: no binding

## UUUUUAA (ssRNA) [BRATmut]
[4]; label: Cy5
  binding result: binds

## GCCAUUUUUUAUCUGCCA (ssRNA) [Col4a1]
[2]; label: 32P
  binding result: binds
[3]
  binding result: no binding

## UUUUUAC (ssRNA) [SEQ5]
[4]; label: Cy5
  binding result: binds

## GGUCUUUUUACAAAAG (ssRNA) [Mlc-c]
[2]; label: 32P
  binding result: binds
[3]
  binding result: no binding

## UUUUACAA (ssRNA) [SEQ44U]
[4]; label: Cy5
  binding result: binds

## UUUUUUUUU (ssRNA) [U9]
[6]
  binding result: binds
[2]; label: Cy5 (MST), 32P (EMSA)
  binding result: binds

## TTTTACA (ssDNA) [DNA]
[4]; label: Cy5 (MST), 32P (EMSA)
  binding result: no binding
